{"source": "the nanobody polyreactivity screen of Harvey et al. (2022)"}
{"assay": "yeast display, Sf9 membrane polyspecificity reagent, FACS + sequencing; frameworks hold sequencing errors", "method_in_brief": "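Nanobodies from a synthetic yeast display library (Saccharomyces cerevisiae BJ5465), induced 36–48 hours with galactose, were stained 1 hour at 4 °C with 10% biotinylated, detergent-solubilized Sf9 membrane reagent, enriched on streptavidin microbeads, then FACS-sorted. Anti-HA (expression) and streptavidin (reagent binding) fluorescence set low and high (top ~1%) gates. Polyreactivity labels come from the gate of origin. Genes were colony-PCR amplified, MiSeq 2 × 250 sequenced and filtered by CDR length.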"}
{"sequence": "QVQLVESGGGLFQAGGSLRLSCAASGSIFWGYDMGWYRQPPGKERELGARISYSGGSTSYADSVKGRFTISRDNAKNTVYLQMNSLKPEDTAVYYCAADEGGFWWTYPYDCWGQGTQVSVSS", "polyreactivity (PSR sort gate)": "low polyreactivity"}
{"sequence": "QVQLVESGGGLFQAGGSLRLSCAASGSTFPYNAMGGYRQAPGKERELVAAINSGATTYYADSVKGRFTISRDNAKNTVYLQMNSLKPEDTAVYYCAAEGYASSSEYDYWGQGTQVTVSS", "polyreactivity (PSR sort gate)": "low polyreactivity"}
{"sequence": "QVQLVESGGGLFQAGGSLRLSCAASGSTSIYNAMGWYRQAPGKERELVAAIDVRGGGTYADSVKGRFTISRDNAKNTVYLQMNSMKPEDTAVYYCNADYARYPNGWFRIVGSGYWGQGTQVTVSS", "polyreactivity (PSR sort gate)": "low polyreactivity"}
{"sequence": "QVQLVESGGGLFQAGGSLRLSCAASRLIFPLYAMGWYRKAPWKERELVAANTRGGSTYYADSVKGRLTISSDNANNTVYLQINSLKAEDTAVYDCNDELPVHWSWYDYWGQGTQVTVSS", "polyreactivity (PSR sort gate)": "low polyreactivity"}
{"sequence": "QVQLVESGGGLFQAGGSLRLSCAATGITFFRYPMGWYRQAPGKERELVAVITRGGTTYYADSVKGRFTISRDNAKNNAYLQINSLKPEDTAVSYCAAKPYYGYDYWGQGTQVTVSW", "polyreactivity (PSR sort gate)": "high polyreactivity"}
{"sequence": "QVQLVESGGGLFQAGGSLRLSCAPSGFIFPKNPMSWYRHAPGKERELVAAISQSGGSTYYADSVKGRFTISRDNAKNTVYLQMKSLKADDTAVYSCAARYYLPNWVGGGEYNYWGQGTQVTVST", "polyreactivity (PSR sort gate)": "high polyreactivity"}
{"sequence": "QVQLVESGGGLFQAGGSLRLSCAPSGSIIIRNAMGWYRQAPGKEREWVAVISSSVGRTYYADSVKGRFTISRDTAKNTVYVQMNSLKPEVTAVYYCAARWYSGYGRFDYWGQVTQVTVSS", "polyreactivity (PSR sort gate)": "high polyreactivity"}
{"sequence": "QVQLVESGGGLFQAGGSLRLSCASSGSIFLIYAMGWYRQAPGKERELVAAITQRGGSTYYADSVKGRFTISRDNAKISVYLQMESLKPEDTAVYYCNARRYVMRYNRFYYWGQGTQVTVSS", "polyreactivity (PSR sort gate)": "high polyreactivity"}
{"sequence": "QVQLVESGGGLFQAGGSLRLSCSASGSIFKRYAMVWYRQAPGKERELVARITNRSGNTYYADSVKGRFTISRDNAKNTVYLQMISLKPEDSAVYYRAATKSLGRYYMYYWGQGTQVTVSS", "polyreactivity (PSR sort gate)": "low polyreactivity"}
{"sequence": "QVQLVESGGGLFQAGVSLRISCAASGFIFDRNAMGWYRQAPGKERELVAVINSGGSTYYADSVKGRFTISRDNAKNTVYLQMNCLKPEDTAVYYCAAVRSRYGREYYYWGQGTQVTVSS", "polyreactivity (PSR sort gate)": "high polyreactivity"}
{"sequence": "QVQLVESGGGLFQEGGSLRISCAPSGSTFGGYVMGWYRQAPGKDRELVAAIRRVGRTYYADSVKGRFTISRDNAKNTVYLQINSLKAEVTAVYYFAADWAGWEGYRMDYWGQGTQVTVSS", "polyreactivity (PSR sort gate)": "low polyreactivity"}
{"sequence": "QVQLVESGGGLFQEGGSLRLSCAASGFTFLYYDMGWYRQAPGKERELVAAINSSGGGTYYADSVKGRFTISRDNAKNTVYLQMNSLKPEDTAVYYCAVSWSDGYDYWGQGTQVTVSS", "polyreactivity (PSR sort gate)": "high polyreactivity"}
{"sequence": "QVQLVESGGGLFQSGGSLRLTSAASGSTFAYKAMGWYRQAPGKEREFVAAITIGSTYADSVKGRFTISRDNAKNTVYLQMNSLKPEDTAVYYCAVRRPRRNYNYPYDYWGQGTQVTVSS", "polyreactivity (PSR sort gate)": "low polyreactivity"}
{"sequence": "QVQLVESGGGLGQAAGSLRLSCAASGHIFGPYAMGWYSQAPGKERELVAAITSGGTTYYADSVKGRFTISRDNAKNTVYLQMNSLKPEDTAVYYCAAKFELTRYSSPFFWYDSWGQGTKVTVSS", "polyreactivity (PSR sort gate)": "high polyreactivity"}
{"sequence": "QVQLVESGGGLGQAGGSLRLICAASGFIFRYNAMGWYRQAPGKERELVAGISRSGGRTYYADSVKGRFTISRDNAKNTVYLQMNSLKPEDTAVYYCNAEWVGGAGGYYYWGQGTQVTVSS", "polyreactivity (PSR sort gate)": "low polyreactivity"}
{"sequence": "QVQLVESGGGLGQAGGSLRLSCAASGFTFRYYAMGWNRQAPGKERELVAAISASGGSTYYADSVKGRFTISRDNAKNTVYLQMNSLKPEDTAVYYCARYYAKMDYWGQGTQVTVSS", "polyreactivity (PSR sort gate)": "high polyreactivity"}
{"sequence": "QVQLVESGGGLGQAGGSLRLSCAASGFTFVFYAMGWYRQAPGKERELVAGISRTGGSTYYADSVKGRFTISRDNAKNTVYLQMNSLKPEDTAVYYCAAVSRGFGSRGYDYWGQGTQVTVSS", "polyreactivity (PSR sort gate)": "high polyreactivity"}
{"sequence": "QVQLVESGGGLGQAGGSLRLSCAASGLIFGLYAMGWYRQAPGKERELVAAISYRTDSTYADSVKGRFTISRDNAKNTVYLQMNSLKPEDTAVYYCAADLRVSVRYYYWGQGTQVTVSS", "polyreactivity (PSR sort gate)": "low polyreactivity"}
{"sequence": "QVQLVESGGGLGQAGGSLRLSCAASGRIFGVYGMGWYRQAPGNDRELVAAITLAGRTNYADSVKGRFTISRDNAKNTVYLQMNSLKPQDTAVYYCAAEKRKLFQGVARYRYEDWGQGTQVTVSS", "polyreactivity (PSR sort gate)": "low polyreactivity"}
{"sequence": "QVQLVESGGGLGQAGGSLRLSCAASGRIFRYNAMGWYRQAPGKERELVAAITGSGGSTYYADSVKGRFTISRDNAKNTVYLQMNSLKPEDTAVYYCNTYTYYSRMDYWGQGTQVTVSS", "polyreactivity (PSR sort gate)": "high polyreactivity"}
{"sequence": "QVQLVESGGGLGQAGGSLRLSCAASGRIFYSNVMGWYRQAHGKEREFVAAISGRTGGTYYADSVKGRFTISRDNAKNTVYLQMNSLKPEDTAVYYCAARVIYYYGSGPYDYWGQGTQVTVSS", "polyreactivity (PSR sort gate)": "low polyreactivity"}
{"sequence": "QVQLVESGGGLGQAGGSLRLSCAASGRTFFRYAMGWYRQAPGKERELVAAISSRGGSTYYADSVKGRFTISRDNAKNTVYLQMNSLKPEDTAVYYCNAAAFINFILYDYWGQGTQVTVSS", "polyreactivity (PSR sort gate)": "high polyreactivity"}
{"sequence": "QVQLVESGGGLGQAGGSLRLSCAASGRTVYYNGMGWYRPAPGKEREVVAAITSGGTTSYADSVKGRFTISRDNAKNTVYLQMISLKPEETAVYYSNADYWAVNYDYWGQGTQVTVSS", "polyreactivity (PSR sort gate)": "low polyreactivity"}
{"sequence": "QVQLVESGGGLGQAGGSLRLSCAASGSIFWGNAMGWYRQAPGKESELVACIRNSGTSTYYADSVKWRFTISRDNAKNTVYLKMNSLKPVDTAVYYCAAADGRQYSRYYWRGHDYWGQGTQVTVSS", "polyreactivity (PSR sort gate)": "low polyreactivity"}
{"sequence": "QVQLVESGGGLGQAGGSLRLSCAASGSIFYYYAMGWYRQAPGKERELVASITSSGGTTSYADSVKGRFTISRDNAKNTVNLQMNSLKPEDTEVYYGNAQVYRYRIGYDYWGQGTQVTVSS", "polyreactivity (PSR sort gate)": "low polyreactivity"}
{"sequence": "QVQLVESGGGLGQAGGSLRLSCAASGSIIKPYAMGWYRQAPGKERELVAAIRSSGGRTNYADSVKGRFTISRDNAKNSVYFQMNSLKPEDTGVYYCAAGYVSYWYYRYDYWGQGTQVTVSS", "polyreactivity (PSR sort gate)": "high polyreactivity"}
{"sequence": "QVQLVESGGGLGQAGGSLRLSCAASGVSNAMGWYRQAPGKERELVAAISRSGGSTYYADSVKGRFTISRDNAKNTVYLQMNRLKPEDTAVYYCNARPYWIDGSGLFPYDYWGQGSQVTVSS", "polyreactivity (PSR sort gate)": "high polyreactivity"}
{"sequence": "QVQLVESGGGLGQAGGSLRLSCAPSGFIFTLYAMGWYRQAPGKERELVAAIDTSVASTYYADSVKGRFTLSRENAKYTVYLQMNSLKPEDTAVYYCNADGASYLILSYYQPYDYWGQGTQVTVSS", "polyreactivity (PSR sort gate)": "low polyreactivity"}
{"sequence": "QVQLVESGGGLGQAGGSLRLSCASSGFTFVPYAMVWYSPAPGKERELVAAIDFDDATTYYADSVKGRFTISRDNAKNTVYLQMNSMKPEDTALYYCAADGFYAPDDAPFYYWGQGTQVTVSS", "polyreactivity (PSR sort gate)": "high polyreactivity"}
{"sequence": "QVQLVESGGGLGQAGGSLRLSCTASGRIFPYYAMGWYRQAPGKERELVAALSGRGGRTYYADSVKGRFTISRDNAKNTVYLQMNSLNPEDTAVYYCNARVQAVHYGYWGQGTQVTVSS", "polyreactivity (PSR sort gate)": "high polyreactivity"}
{"sequence": "QVQLVESGGGLGQAGGSLRLTCAASGSIFRSYAMGWYRQAPGKESEFVATISSSTGSTYYADSVKGRFSISRDNAKNTVYLPMNSLKPEFTAVYYCAAVQPVKSSSGYHFWYYWGQGTQVTVSS", "polyreactivity (PSR sort gate)": "high polyreactivity"}
{"sequence": "QVQLVESGGGLGQAGGSLRLTCAASGSTFDYYAMGWYRPAPRKERELVAAISSSGSSTYYADSVKGRFTISRDIAKNTVYLQMNSLNPEDTAVYFCAIGTNYRDDYWGQGTQVTVSS", "polyreactivity (PSR sort gate)": "low polyreactivity"}
